The results in this text go back to patent US9416178B2, “Jagged-binding agents and uses thereof” (OncoMed Pharmaceuticals, Inc., priority 2009, dated 2016).

Assay [1] concerns PN17 pancreatic tumor cells. In words: PN17 pancreatic tumor xenograft model. The note with it: antibody 15 mg/kg twice a week or gemcitabine 5 mg/kg once a week, intraperitoneally, FIG. 7. Type of assay: in vivo, NOD/SCID mice. As for the experimental part: PN17 pancreatic tumor cells were injected subcutaneously into the flanks of NOD/SCID mice. 10,000 cells were injected per animal. Mice were monitored weekly and tumors were allowed to grow until they were approximately 145 mm^3. The mice were randomized into four treatment groups (n=10 mice/group) and treated with either control antibody (LZ-1), anti-Jagged 64M51, gemcitabine or a combination of 64M51 and gemcitabine. Gemcitabine was administered intraperitoneally at a dose of 5 mg/kg once a week and antibodies were administered intraperitoneally at a dose of 15 mg/kg twice a week.

Assay [2] deals with human Jagged2-induced Notch activation. Briefly: Notch luciferase reporter assay, two cell population format. The class given is cell-based. The note with it: Example 14; PC3 cells; antibody 50 to 0.2 μg/ml; FIG. 12A. The source says: (§1) The ability of Jagged antibodies to inhibit Jagged-induced Notch signaling was also investigated using a two cell population assay format. One population of human PC3 cells was transfected with an expression vector encoding a full-length Notch2 receptor as well as plasmids encoding a Notch-dependent firefly luciferase reporter construct (8×CBF luciferase) and a Renilla luciferase reporter (Promega, Madison Wis.) as an internal transfection control. A second population of human PC3 cells was transfected with an expression vector encoding a full-length cDNA for either hJagged1 or hJagged2. Aliquots of the two cell populations were mixed together and incubated overnight in the presence of 64M51, 64R7 or 64R1B antibodies that were serially diluted 1:4 from 40 to 0.039 μg/ml, luciferase levels were measured 18 hours later using a dual luciferase assay kit (Promega, Madison, Wis.) with firefly luciferase activity normalized to Renilla luciferase activity. Shown is a titration of 64M51, 64R1B and 64R7 antibodies in this assay.
(§2) The ability of Jagged antibodies 133R0201, 133R0203, 133R0205, 133R0207, 133R0208, 133R0209 and 133R0210 to inhibit Jagged-induced Notch signaling was investigated using a two cell population assay format as described above in Example 6. One population of human PC3 cells was transfected with an expression vector encoding a full-length Notch2 receptor as well as plasmids encoding a Notch-dependent firefly luciferase reporter construct (8×CBF luciferase) and a Renilla luciferase reporter (Promega, Madison Wis.) as an internal transfection control. A second population of human PC3 cells was transfected with an expression vector encoding a full-length cDNA for either hJagged1 or hJagged2. Aliquots of the two cell populations were mixed together and incubated overnight in the presence of antibodies 64R7, 133R0201, 133R0203, 133R0205, 133R0207, 133R0208, 133R0209 and 133R0210 that were serially diluted 1:3 from 50 to 0.2 μg/ml. Luciferase levels were measured 18 hours later using a dual luciferase assay kit (Promega, Madison, Wis.) with firefly luciferase activity normalized to Renilla luciferase activity. Shown in FIGS. 12A and 12B are titrations of the antibodies in this assay.
For orientation: Reporter assays use an easily measured gene product as a stand-in for the process of interest.

For assay [3], the system named is human Jagged1-induced Notch2 activation. The description is as above. Type of assay: cell-based. The note with it: Example 14; PC3 cells; antibody 50 to 0.2 μg/ml; FIG. 12B.
Source text: as §1, §2

The subject of assay [4] is OMP-Lu45 cells. Briefly: Lu45 lung tumor xenograft model (Example 16). The class given is in vivo, NOD/SCID mice. The note with it: FIG. 14; for reduction of tumor growth, antibody in combination with taxol relative to taxol alone: antibody 15 mg/kg twice a week plus taxol 15 mg/kg once a week. On the procedure:
The anti-tumor activity of antibodies 64R7, 133R0201, 133R0203, 133R0205 and 133R206 was evaluated in the lung Lu45 tumor xenograft model. Dissociated OMP-Lu45 cells (50,000 per animal) were injected subcutaneously into 6-8 week old male NOD/SCID mice. Tumor growth was monitored weekly and tumor measurements were initiated once tumors were palpable. On day 41, mice with average tumor volumes of 132 mm^3 were randomized into 10 groups of 10 animals each. Animals were injected with control antibody, antibody 64R7, antibody 133R0201, antibody 133R0203, antibody 133R0205, antibody 133R0206 (all at 15 mg/kg), taxol (15 mg/kg), a combination of antibody 64R7 and taxol, a combination of antibody 133R0203 and taxol, or a combination of antibody 133R0205 and taxol. Administration of the antibodies and taxol was performed via injection into the intra-peritoneal cavity, once a week for taxol and twice a week for antibodies. Tumors were measured twice a week and tumor volume was determined using the formula ½(a×b^2); where a=length, and b=breadth. Data are expressed as mean and mean±S.E.M. Group means were compared using Student's two-tailed, unpaired t test.

Assay [5] concerns OMP-Lu42 cells. Briefly: Lu42 lung tumor xenograft model. Type of assay: in vivo, NOD/SCID mice. The note with it: 15 mg/kg intraperitoneally twice a week, FIG. 13. As for the experimental part:
The anti-tumor activity of antibodies 64R7, 133R0203, and 133R0205 were evaluated in the lung Lu42 tumor xenograft model. Dissociated OMP-Lu42 cells (50,000 per animal) were injected subcutaneously into 6-8 week old male NOD/SCID mice. Tumor growth was monitored weekly and tumor measurements were initiated once tumors were palpable. On day 54, mice with average tumor volumes of 114 mm^3 were randomized into 4 groups of 10 animals each. Animals were injected with 15 mg/kg of either control antibody, antibody 64R7, antibody 133R0203, or antibody 133R0205. Administration of the antibodies was performed via injection into the intraperitoneal cavity, twice a week. Tumors were measured twice a week and tumor volume was determined using the formula ½(a×b^2); where a=length, and b=breadth. Data are expressed as mean and mean±S.E.M. Group means were compared using Student's two-tailed, unpaired t test.

With `Nc1ccn([C@@H]2O[C@H](CO)[C@@H](O)C2(F)F)c(=O)n1` [gemcitabine, reference compound], the “tumor growth, single agent” value in assay [1] is on record as “transient initial response”.

B1: 133R0201: 64R7 variant anti-Jagged antibody; heavy chain variable region SEQ ID NO:50, light chain variable region SEQ ID NO:21 (antibody, V domains shown)
VH: QVQLVESGGGVVQPGRSLRLSCAASGFTFSSYAMHWVRQAPGKGLEWVAAIYPDSSNKYYADSVKGRFTISRDNSKNTLYLQMNSLRAEDTAVYYCARDKYDIPDAFDIWGQGTLVTVS
VL: DIRMTQSPSSLSASVGDRVTITCRASQGISNDLAWYQQKPGKVPRLLIYATSTLQSGVPSRFSGSGSATDFTLTISSLQPEDVATYYCQQSYNAPITFGQGTRLEIK
modifications: 133R0201 Heavy chain variable region; 64R7 Light chain variable region
On to B1, for which the “inhibition of human Jagged2-induced Notch activation, two cell population assay” value in assay [2] is “inhibitors”. For the same molecule, the “inhibition of human Jagged1-induced Notch activation, two cell population assay” value in assay [3] is “inhibitors”. In addition, the “reduction in tumor growth, single agent compared to control antibody” value (from here on “reduction in tumor growth, single agent”) in assay [4] (15 mg/kg twice a week) is reported as 24%.

B2: 133R0203: 64R7 variant anti-Jagged antibody; heavy chain variable region SEQ ID NO:51, light chain variable region SEQ ID NO:21 (antibody, V domains shown)
VH: QVQLVESGGGVVQPGRSLRLSCAASGFTFSSYAMHWVRQAPGKGLEWVAAISPEASNKYYADSVKGRFTISRDNSKNTLYLQMNSLRAEDTAVYYCARDKYDIPDAFDIWGQGTLVTVS
VL: DIRMTQSPSSLSASVGDRVTITCRASQGISNDLAWYQQKPGKVPRLLIYATSTLQSGVPSRFSGSGSATDFTLTISSLQPEDVATYYCQQSYNAPITFGQGTRLEIK
modifications: 133R0203 Heavy chain variable region; 64R7 Light chain variable region
On to B2, for which, in assay [2], the “inhibition of human Jagged2-induced Notch activation, two cell population assay” value is “inhibitors”. In addition, the “inhibition of human Jagged1-induced Notch activation, two cell population assay” value in assay [3] is “inhibitors”. Also, in assay [4], the “reduction of tumor growth, antibody in combination with taxol relative to taxol alone” value is reported as 36%. For the same molecule, the “reduction in tumor growth, single agent” value in assay [5] is 28%.

B3: 133R0205: 64R7 variant anti-Jagged antibody; heavy chain variable region SEQ ID NO:52, light chain variable region SEQ ID NO:21 (antibody, V domains shown)
VH: QVQLVESGGGVVQPGRSLRLSCAASGFTFSSYAMHWVRQAPGKGLEWVAAIYPASSNKYYADSVKGRFTISRDNSKNTLYLQMNSLRAEDTAVYYCARDKYDIPDAFDIWGQGTLVTVS
VL: DIRMTQSPSSLSASVGDRVTITCRASQGISNDLAWYQQKPGKVPRLLIYATSTLQSGVPSRFSGSGSATDFTLTISSLQPEDVATYYCQQSYNAPITFGQGTRLEIK
modifications: 133R0205 Heavy chain variable region; 64R7 Light chain variable region
As to B3, in assay [2], the “inhibition of human Jagged2-induced Notch activation, two cell population assay” value is recorded as “inhibitors”. For the same molecule, in assay [3], the “inhibition of human Jagged1-induced Notch activation, two cell population assay” value is recorded as “inhibitors”. Further, the “reduction of tumor growth, antibody in combination with taxol relative to taxol alone” value in assay [4] is “reduction of tumor growth”. Moreover, the “reduction in tumor growth, single agent” value in assay [5] is reported as 33%.
